Results from patent US20150258192A1, “COMPOSITIONS AND METHODS FOR PREVENTING OR TREATING CHRONIC LUNG ALLOGRAFT DYSFUNCTION (CLAD) AND IDIOPATHIC PULMONARY FIBROSIS (IPF)” (priority 2014, published 2015).
No end group written: not given here.

Columns and labels:
Assay in all cases: Kinase Profiling Assay
Assay type in all cases: biochemical
Settings in all cases: peptide 100 μM
Hck(h) = target: T1, Hck(h) (Homo sapiens, UniProt P08631)
T1 construct: purchased Millipore
Summary of the method: (§1)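 Each kinase activity was measured in duplicate. Phosphorylation of a positively charged substrate with radiolabeled phosphate from ATP was captured on a negatively charged filter, counted by scintillation and expressed relative to a 100% activity control. MK2 inhibitory peptides were screened for specificity across 266 human kinases.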

Met(M1268T)(h) = target: T2, Met(M1268T)(h) (Homo sapiens, UniProt P08581, M1250T)
T2 construct: purchased Millipore
Summary of the method: as §1

EGFR(T790M)(h) = EGFR(T790M)(h) (Homo sapiens, UniProt P00533, T790M)
Summary of the method: as §1

Abl(M351T)(h) = Abl(M351T)(h) (Homo sapiens, UniProt P00519, M351T)
Summary of the method: as §1

Abl(H396P)(h) = Abl(H396P)(h) (Homo sapiens, UniProt P00519, H396P)
Summary of the method: as §1

HIPK3(h) = target: T3, HIPK3(h) (Homo sapiens, UniProt Q9H422)
T3 construct: purchased Millipore
Summary of the method: as §1

PAK3(h) = PAK3(h) (Homo sapiens, UniProt O75914)
Summary of the method: as §1

Lck(h) = target: T4, Lck(h) (Homo sapiens, UniProt P06239)
T4 construct: purchased Millipore
Summary of the method: as §1

ARK5(h) = target: T5, ARK5(h) (Homo sapiens, UniProt O60285)
T5 sequence (O60285 1-661): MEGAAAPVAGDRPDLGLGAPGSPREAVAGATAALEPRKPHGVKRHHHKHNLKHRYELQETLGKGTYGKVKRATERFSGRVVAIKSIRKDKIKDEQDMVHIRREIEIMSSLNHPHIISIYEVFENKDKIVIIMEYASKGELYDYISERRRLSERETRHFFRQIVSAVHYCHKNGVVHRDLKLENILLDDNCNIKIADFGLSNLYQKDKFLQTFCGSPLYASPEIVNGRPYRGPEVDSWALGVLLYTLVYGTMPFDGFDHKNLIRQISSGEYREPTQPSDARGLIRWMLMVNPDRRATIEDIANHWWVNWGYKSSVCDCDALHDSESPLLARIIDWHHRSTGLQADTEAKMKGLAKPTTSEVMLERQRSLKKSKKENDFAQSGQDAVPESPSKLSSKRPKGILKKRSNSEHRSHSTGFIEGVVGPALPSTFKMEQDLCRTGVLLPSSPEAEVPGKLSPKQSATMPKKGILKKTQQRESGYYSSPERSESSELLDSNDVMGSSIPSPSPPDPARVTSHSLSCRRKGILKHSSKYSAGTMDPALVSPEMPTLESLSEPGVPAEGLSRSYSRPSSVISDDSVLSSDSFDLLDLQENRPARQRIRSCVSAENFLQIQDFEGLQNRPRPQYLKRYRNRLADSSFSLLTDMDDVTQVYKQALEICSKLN
Summary of the method: as §1

CK1γ3(h) = CK1γ3(h) (Homo sapiens, UniProt Q9Y6M4)
Summary of the method: as §1

Aurora-A(h) = target: T6, Aurora-A(h) (Homo sapiens, UniProt O14965)
T6 sequence (O14965 1-403): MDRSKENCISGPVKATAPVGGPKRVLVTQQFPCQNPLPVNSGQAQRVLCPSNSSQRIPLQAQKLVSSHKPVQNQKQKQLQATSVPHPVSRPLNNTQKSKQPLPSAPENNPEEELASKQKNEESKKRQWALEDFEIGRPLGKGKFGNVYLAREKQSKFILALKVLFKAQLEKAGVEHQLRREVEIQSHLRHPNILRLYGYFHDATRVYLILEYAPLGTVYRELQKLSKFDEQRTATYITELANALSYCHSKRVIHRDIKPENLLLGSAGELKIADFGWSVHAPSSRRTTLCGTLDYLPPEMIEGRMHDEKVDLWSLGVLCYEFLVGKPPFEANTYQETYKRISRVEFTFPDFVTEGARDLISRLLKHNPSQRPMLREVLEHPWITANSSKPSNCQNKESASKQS
Summary of the method: as §1

PAR-1Bα(h) = PAR-1Bα(h) (Homo sapiens, UniProt Q7KZI7)
Summary of the method: as §1

PKA(h) = PKA(h) (Homo sapiens, UniProt P17612)
Summary of the method: as §1

PDGFRα(D842V)(h) = PDGFRα(D842V)(h) (Homo sapiens, UniProt P16234, D842V)
Summary of the method: as §1

IGF-1R(h) = target: T7, IGF-1R(h) (Homo sapiens, UniProt P08069)
T7 construct: purchased Millipore
Summary of the method: as §1

CK2α2(h) = CK2α2(h) (Homo sapiens, UniProt P19784)
Summary of the method: as §1

GRK5(h) = target: T8, GRK5(h) (Homo sapiens, UniProt P34947)
T8 construct: purchased Millipore
Summary of the method: as §1

Tie2(R849W)(h) = Tie2(R849W)(h) (Homo sapiens, UniProt Q02763, R849W)
Summary of the method: as §1

T1 sequence (P08631 whole entry): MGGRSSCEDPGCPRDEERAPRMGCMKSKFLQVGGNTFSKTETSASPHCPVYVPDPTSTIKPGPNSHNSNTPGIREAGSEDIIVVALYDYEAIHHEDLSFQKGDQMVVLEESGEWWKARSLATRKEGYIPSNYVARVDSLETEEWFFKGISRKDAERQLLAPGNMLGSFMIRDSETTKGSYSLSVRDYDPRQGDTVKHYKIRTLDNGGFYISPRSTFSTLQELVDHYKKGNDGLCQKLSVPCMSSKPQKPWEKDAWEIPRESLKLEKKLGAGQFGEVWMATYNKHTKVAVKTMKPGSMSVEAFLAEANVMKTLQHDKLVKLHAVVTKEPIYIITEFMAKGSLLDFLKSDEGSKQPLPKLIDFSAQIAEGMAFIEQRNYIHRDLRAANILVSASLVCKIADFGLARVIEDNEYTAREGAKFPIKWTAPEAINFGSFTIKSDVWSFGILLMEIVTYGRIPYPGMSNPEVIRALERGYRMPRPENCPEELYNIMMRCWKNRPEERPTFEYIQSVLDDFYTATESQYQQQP
PAR-1Bα(h), sequence (Q7KZI7 1-725 isoform Q7KZI7-4): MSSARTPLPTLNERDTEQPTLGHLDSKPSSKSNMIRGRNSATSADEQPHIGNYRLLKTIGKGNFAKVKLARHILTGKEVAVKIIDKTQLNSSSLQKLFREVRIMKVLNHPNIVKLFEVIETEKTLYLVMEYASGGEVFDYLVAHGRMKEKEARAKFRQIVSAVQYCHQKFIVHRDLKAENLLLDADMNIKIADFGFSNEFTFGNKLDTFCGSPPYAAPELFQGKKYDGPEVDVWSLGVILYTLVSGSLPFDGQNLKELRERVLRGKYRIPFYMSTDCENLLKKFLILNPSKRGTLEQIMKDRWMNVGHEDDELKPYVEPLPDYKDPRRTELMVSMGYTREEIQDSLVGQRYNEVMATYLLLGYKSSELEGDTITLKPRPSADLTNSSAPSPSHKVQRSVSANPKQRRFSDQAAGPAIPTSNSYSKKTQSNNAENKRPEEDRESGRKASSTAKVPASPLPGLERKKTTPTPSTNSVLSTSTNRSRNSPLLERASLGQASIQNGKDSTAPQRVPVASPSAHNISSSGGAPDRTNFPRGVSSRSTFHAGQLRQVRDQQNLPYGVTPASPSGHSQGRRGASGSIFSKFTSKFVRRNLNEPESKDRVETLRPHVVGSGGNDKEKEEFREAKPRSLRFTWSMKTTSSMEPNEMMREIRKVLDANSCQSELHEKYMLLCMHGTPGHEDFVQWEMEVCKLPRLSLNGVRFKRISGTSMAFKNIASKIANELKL
CK1γ3(h), sequence (Q9Y6M4 whole entry): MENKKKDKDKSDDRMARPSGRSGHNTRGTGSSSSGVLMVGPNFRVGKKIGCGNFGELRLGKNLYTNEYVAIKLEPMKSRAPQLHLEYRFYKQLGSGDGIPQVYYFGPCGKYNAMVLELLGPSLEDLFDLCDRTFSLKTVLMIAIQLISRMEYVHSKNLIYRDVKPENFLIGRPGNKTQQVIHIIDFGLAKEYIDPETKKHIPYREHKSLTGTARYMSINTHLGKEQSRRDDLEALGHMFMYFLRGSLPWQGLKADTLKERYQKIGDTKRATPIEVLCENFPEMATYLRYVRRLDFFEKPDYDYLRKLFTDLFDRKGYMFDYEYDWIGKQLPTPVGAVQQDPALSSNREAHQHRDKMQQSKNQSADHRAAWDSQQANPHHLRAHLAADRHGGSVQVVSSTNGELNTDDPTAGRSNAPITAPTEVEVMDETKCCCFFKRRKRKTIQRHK
Tie2(R849W)(h), sequence (Q02763 23-1124 R849W): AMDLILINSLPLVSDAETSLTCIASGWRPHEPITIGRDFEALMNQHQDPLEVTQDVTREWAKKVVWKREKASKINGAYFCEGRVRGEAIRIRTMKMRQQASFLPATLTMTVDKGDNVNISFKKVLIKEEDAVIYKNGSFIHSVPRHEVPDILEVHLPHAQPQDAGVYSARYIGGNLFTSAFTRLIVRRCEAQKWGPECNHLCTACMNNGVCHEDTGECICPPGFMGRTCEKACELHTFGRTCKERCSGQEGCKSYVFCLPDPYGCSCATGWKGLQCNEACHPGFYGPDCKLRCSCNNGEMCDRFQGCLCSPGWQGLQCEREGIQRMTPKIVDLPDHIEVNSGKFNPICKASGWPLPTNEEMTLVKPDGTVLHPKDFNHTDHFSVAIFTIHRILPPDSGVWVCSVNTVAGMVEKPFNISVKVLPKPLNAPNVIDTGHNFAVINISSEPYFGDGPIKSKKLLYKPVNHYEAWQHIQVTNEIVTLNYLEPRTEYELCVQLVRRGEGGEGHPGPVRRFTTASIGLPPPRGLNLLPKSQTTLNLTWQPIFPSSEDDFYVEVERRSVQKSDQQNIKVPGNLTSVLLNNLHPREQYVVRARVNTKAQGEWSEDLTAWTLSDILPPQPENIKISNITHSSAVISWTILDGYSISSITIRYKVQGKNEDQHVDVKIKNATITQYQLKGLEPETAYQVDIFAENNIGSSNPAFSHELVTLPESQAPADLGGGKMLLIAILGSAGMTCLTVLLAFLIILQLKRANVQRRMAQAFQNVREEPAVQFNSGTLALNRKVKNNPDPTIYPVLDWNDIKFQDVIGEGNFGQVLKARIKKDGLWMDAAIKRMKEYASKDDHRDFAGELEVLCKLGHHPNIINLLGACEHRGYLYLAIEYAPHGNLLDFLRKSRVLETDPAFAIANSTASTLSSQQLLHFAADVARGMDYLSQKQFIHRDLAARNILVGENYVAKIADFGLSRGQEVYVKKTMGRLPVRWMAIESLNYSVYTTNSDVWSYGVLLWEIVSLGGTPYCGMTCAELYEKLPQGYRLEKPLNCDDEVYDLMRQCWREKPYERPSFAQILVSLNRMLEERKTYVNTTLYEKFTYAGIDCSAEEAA
CK2α2(h), sequence (P19784 whole entry): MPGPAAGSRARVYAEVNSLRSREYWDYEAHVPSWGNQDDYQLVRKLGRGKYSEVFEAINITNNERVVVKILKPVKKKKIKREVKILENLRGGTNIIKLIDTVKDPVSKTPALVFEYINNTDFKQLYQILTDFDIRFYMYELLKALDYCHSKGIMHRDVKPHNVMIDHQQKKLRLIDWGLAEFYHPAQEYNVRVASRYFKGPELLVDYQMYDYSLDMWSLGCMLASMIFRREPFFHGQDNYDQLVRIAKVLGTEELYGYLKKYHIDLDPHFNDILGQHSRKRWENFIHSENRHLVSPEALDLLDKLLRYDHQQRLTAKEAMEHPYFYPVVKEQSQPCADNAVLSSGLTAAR
T4 sequence (P06239 whole entry): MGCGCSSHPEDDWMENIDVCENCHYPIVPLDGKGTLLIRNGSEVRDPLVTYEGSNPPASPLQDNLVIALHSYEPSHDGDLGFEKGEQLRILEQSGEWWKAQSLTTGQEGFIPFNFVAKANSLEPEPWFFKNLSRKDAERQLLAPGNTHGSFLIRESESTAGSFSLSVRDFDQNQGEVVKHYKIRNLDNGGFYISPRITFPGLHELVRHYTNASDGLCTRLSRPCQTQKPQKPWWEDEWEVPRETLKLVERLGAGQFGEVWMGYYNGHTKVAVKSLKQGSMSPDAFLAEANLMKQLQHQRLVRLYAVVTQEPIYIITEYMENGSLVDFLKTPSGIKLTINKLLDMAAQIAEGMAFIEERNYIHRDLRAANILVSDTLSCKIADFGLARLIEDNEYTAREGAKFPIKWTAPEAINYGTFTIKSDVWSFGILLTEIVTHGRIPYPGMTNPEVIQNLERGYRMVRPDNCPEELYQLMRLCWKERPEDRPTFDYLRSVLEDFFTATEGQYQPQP
PAK3(h), sequence (O75914 whole entry): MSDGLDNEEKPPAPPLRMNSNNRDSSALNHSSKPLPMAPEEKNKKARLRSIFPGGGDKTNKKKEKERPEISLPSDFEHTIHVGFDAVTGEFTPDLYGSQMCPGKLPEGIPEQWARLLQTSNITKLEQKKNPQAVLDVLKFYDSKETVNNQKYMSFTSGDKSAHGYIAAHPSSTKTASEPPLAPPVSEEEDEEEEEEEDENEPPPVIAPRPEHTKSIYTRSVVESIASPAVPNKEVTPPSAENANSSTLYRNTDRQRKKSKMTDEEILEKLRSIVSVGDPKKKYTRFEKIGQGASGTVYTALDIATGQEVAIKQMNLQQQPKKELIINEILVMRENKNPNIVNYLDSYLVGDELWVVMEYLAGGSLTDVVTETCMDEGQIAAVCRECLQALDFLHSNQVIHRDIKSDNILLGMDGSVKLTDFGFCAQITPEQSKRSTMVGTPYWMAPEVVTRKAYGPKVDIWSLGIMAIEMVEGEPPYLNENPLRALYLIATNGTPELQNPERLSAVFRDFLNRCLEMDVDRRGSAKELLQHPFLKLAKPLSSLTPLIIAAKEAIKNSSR
T8 sequence (P34947 whole entry): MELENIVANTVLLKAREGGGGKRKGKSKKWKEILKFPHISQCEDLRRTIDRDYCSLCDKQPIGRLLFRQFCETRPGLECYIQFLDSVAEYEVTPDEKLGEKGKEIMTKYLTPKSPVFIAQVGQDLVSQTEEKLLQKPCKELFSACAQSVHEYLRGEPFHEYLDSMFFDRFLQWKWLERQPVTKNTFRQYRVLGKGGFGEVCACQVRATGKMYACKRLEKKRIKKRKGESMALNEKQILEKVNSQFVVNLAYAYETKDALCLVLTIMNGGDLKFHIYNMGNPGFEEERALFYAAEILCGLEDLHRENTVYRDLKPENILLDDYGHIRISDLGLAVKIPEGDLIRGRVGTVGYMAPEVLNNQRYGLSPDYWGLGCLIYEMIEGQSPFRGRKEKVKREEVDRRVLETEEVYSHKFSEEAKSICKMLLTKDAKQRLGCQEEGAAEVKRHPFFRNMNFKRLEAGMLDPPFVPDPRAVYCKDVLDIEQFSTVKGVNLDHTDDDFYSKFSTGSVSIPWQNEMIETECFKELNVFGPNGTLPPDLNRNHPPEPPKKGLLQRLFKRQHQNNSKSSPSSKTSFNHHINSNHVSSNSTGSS

Sequence: FAKLAARLYRKALARQLGVAA [MMI-0300]
- % activity (Hck(h)): 72%
- % activity (Met(M1268T)(h)): 255%
- % activity (EGFR(T790M)(h)): 100%
- % activity (Abl(M351T)(h)): 90%
- % activity (Abl(H396P)(h)): 101%
- % activity (HIPK3(h)): 93%
- % activity (PAK3(h)): 140%
- % activity (Lck(h)): -2%
- % activity (ARK5(h)): 78%
- % activity (CK1γ3(h)): 125%
- % activity (Aurora-A(h)): 92%

Sequence: HRRIKAWLKKIKALARQLGVAA (Mammal) [MMI-0500]
- % activity (Hck(h)): 78%
- % activity (PAR-1Bα(h)): 97%
- % activity (Met(M1268T)(h)): 239%
- % activity (PKA(h)): 118%
- % activity (EGFR(T790M)(h)): 70%
- % activity (Abl(M351T)(h)): 61%
- % activity (Abl(H396P)(h)): 51%
- % activity (HIPK3(h)): 85%
- % activity (Lck(h)): 359%
- % activity (ARK5(h)): 20%
- % activity (PDGFRα(D842V)(h)): 170%
- % activity (Aurora-A(h)): 110%

Sequence: KAFAKLAARLYRKALARQLGVAA [MMI-0400]
- % activity (Hck(h)): 72%
- % activity (Met(M1268T)(h)): 265%
- % activity (IGF-1R(h)): 90%
- % activity (CK2α2(h)): 96%
- % activity (GRK5(h)): 131%
- % activity (ARK5(h)): 69%
- % activity (PDGFRα(D842V)(h)): 118%
- % activity (Tie2(R849W)(h)): 108%

Sequence: YARAAARQARAKALARQLGVAA [MMI-0100]
- % activity (ARK5(h)): 108%

Sequence: YARAAARQARAKALNRQLGVA (Mammal) [MMI-0200]
- % activity (PAR-1Bα(h)): 110%
- % activity (Met(M1268T)(h)): 143%
- % activity (PKA(h)): 110%
- % activity (IGF-1R(h)): 49%
- % activity (PAK3(h)): 50%
- % activity (CK2α2(h)): 88%
- % activity (GRK5(h)): 135%
- % activity (ARK5(h)): 93%
- % activity (CK1γ3(h)): 96%
- % activity (Tie2(R849W)(h)): 89%
